Experimental data: doi:10.1101/585463

Legend:
[1] = target: fully glycosylated CmeA (g2CmeA) (Campylobacter jejuni) (UniProt Q0PBE3); experiment: SPR
[2] = target: non-glycosylated CmeA (g0CmeA), periplasmic fusion protein of the CmeABC multidrug efflux pump (Campylobacter jejuni) (UniProt Q0PBE3); experiment: SPR

Substance: CmeC, outer membrane associated channel of the CmeABC multidrug efflux pump (natural protein)
- Kd [1]: 5 nM
- koff [1]: 0.00075 s⁻¹
- kon [1]: 150000 M⁻¹ s⁻¹
- Kd [2]: 17 nM
- koff [2]: 0.0009 s⁻¹
- kon [2]: 50000 M⁻¹ s⁻¹
